# Source: patent US20040053865A1 (UNITED STATES OF AMERICA AS REPRESENTED BY THE SECRETARY OF …, published 2004)
# T1: Ebola Sudan (Boniface) virus glycoprotein (GP) (Ebola virus, Sudan strain (isolate …, UniProt Q66814 33-676))
# T1 sequence: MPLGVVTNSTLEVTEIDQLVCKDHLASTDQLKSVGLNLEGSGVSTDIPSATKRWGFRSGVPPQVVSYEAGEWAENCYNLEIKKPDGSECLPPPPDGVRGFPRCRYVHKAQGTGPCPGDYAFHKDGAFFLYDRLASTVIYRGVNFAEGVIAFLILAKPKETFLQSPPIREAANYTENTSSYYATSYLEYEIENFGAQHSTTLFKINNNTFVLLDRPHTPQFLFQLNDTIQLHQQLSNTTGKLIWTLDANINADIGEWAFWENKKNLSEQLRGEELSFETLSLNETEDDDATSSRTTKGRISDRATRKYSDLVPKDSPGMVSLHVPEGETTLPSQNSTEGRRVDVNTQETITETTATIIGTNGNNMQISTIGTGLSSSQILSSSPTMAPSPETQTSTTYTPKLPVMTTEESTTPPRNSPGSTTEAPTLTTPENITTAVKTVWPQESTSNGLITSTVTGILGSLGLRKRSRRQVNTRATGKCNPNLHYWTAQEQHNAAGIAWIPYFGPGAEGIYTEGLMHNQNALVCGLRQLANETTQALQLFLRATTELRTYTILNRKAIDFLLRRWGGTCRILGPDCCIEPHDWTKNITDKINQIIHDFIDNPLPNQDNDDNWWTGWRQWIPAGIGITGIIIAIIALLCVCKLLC
# T2: Ebola Ivory Coast virus glycoprotein (GP) (Ebola virus, Ivory Coast strain, UniProt Q66810 33-676)
# T2 sequence: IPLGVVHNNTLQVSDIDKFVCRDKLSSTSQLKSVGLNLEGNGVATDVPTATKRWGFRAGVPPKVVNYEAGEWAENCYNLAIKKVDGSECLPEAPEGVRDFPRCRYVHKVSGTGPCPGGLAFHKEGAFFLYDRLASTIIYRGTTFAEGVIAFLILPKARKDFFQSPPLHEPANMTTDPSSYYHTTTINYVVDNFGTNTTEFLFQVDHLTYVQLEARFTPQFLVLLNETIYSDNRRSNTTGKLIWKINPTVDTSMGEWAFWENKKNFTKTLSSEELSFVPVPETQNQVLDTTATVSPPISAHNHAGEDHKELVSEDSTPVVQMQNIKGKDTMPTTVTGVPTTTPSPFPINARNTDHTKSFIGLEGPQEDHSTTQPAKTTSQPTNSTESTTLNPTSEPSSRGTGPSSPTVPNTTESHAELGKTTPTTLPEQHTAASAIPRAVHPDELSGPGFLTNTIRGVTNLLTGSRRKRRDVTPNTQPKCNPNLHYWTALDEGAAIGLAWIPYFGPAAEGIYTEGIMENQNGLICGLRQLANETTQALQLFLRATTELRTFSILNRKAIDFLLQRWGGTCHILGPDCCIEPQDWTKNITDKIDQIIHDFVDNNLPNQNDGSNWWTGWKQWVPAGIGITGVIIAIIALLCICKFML
# T3: sGP (secreted glycoprotein) from EboGP-VRP-infected cells (Ebola virus, Zaire strain, Mayinga …, UniProt P60170 33-324)
# T3 sequence: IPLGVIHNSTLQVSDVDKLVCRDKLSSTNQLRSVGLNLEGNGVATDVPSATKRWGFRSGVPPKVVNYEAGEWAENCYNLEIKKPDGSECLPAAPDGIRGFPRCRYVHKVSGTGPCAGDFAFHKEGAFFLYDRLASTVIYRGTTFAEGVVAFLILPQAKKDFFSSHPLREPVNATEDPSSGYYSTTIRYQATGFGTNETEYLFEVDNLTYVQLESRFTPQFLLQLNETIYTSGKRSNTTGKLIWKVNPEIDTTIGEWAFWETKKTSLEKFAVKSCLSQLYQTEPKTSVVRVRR
# T4: Ebola Zaire 1976 (Mayinga isolate) virus glycoprotein (GP) (Ebola virus, Zaire 1976 strain (isolate …, UniProt Q05320 33-676))
# T4 sequence: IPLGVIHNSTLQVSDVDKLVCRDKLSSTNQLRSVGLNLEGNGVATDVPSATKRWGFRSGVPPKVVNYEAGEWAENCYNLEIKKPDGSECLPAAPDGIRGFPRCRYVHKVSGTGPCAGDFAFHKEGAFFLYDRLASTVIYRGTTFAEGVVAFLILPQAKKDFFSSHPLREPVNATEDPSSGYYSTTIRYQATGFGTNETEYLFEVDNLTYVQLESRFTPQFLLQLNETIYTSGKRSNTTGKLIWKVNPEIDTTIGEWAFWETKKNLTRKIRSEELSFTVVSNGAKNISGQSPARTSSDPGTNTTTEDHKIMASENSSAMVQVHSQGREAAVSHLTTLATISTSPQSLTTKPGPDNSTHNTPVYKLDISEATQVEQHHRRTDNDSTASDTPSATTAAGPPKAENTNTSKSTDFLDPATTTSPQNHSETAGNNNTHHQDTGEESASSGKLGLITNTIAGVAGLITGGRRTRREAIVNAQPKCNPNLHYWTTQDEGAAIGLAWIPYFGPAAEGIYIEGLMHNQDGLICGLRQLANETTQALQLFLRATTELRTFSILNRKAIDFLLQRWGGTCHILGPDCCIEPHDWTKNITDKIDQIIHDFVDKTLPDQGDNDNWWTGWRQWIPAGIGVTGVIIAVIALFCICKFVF
# Columns and labels:
# [1] = target: T1, Ebola Sudan (Boniface) virus …; test: ELISA on irradiated sucrose-purified virions
# [2] = target: T2, Ebola Ivory Coast virus glycoprotein …; test: ELISA on irradiated sucrose-purified virions
# [3] = target: T3, sGP (secreted glycoprotein) from …; test: radioimmunoprecipitation from infected-cell supernatants
# [4] = target: T4, Ebola Zaire 1976 (Mayinga isolate) …; test: ELISA on virions
Binder,binding result [1],binding result [2],binding result [3],binding result [4]
"MAb EGP 6D8-1-2 (antibody, V domains shown) VH: DVKLLESGGGLVQPGGSLKLSCAASGFDFSRYWMSWVRQAPGKGLEWIGEINPDSSTINYTPSLKDKFIISRDNAKNTLYLQMSKVRSEDTALYYCTRQGYGYNYWGQGTTLIVSS VL: DVLLTQIPLSLPVSLGDQASISCRSSQSIVHSNGNTYLEWYLQKPGQSPKLLIYKASNRFSGVPDRFSGSGSGTDFTLKINRVEAEDLGVYYCLQGSHVPSTFGGGTKLEIKR",no binding,no binding,no binding,binds
"MAb EGP 13F6-1-2 (antibody, V domains shown) VH: EVQVVESGGGLVKPGGSLKLSCAASGFAFSSYDMSWVRQTPEKRLEWVAYISRGGGYTYYPDTVKGRFTISRDNAKNTLYLQMSSLKSEDTAMYYCSRHIYYGSSHYYAMDYWGQGTSVTVSS VL: QLVLTQSSSASFSLGASAKLTCTLSRQHSTYTIEWYQQQPLKPPRYVMELKKDGSHSTGDGIPDRFSGSSSGADRYLSISNIQPEDEAIYICGVGDTIKEQFVYVFGGGTKVTVLG",no binding,no binding,no binding,
